Reference: patent US9725708B2, “Methods of modulating ubiquitin ligase activity” (Board of Supervisors of Louisiana State University and …, priority 2012, dated 2017)
“Also recorded” adds a separate entry of the source.

Target: T1, E6APF727D (Homo sapiens, UniProt Q05086, F750D)
T1 construct: made in house; host or cells: E. coli
T1 sequence (Q05086 1-872 isoform Q05086-3 F747D): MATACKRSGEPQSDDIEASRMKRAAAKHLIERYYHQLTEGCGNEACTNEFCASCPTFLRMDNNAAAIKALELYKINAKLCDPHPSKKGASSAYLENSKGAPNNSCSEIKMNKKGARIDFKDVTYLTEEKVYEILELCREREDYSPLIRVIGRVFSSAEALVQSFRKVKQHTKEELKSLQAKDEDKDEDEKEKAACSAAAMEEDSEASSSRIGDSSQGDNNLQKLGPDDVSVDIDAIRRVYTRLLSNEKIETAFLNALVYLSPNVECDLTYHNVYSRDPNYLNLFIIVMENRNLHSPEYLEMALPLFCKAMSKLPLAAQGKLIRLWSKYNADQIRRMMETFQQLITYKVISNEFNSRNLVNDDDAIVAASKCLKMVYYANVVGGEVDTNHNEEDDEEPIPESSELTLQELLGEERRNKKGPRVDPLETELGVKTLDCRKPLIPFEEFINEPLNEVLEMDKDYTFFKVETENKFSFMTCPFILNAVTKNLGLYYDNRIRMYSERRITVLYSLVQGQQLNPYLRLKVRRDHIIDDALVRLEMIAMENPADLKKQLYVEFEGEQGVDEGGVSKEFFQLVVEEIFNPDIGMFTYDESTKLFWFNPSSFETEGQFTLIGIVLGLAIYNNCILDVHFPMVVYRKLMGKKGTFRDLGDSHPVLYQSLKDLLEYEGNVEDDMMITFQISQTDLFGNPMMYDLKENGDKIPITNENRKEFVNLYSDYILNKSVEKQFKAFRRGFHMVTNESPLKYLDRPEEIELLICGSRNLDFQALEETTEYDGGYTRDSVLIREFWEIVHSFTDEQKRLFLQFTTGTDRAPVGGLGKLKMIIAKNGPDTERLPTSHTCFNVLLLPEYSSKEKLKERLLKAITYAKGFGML
Experiment: E6 rescue of 125I-polyubiquitin chain formation by E6APF727D
Assay type: biochemical
Details: 20 nM E6 protein
Method: E6AP-catalyzed ^125I-Ubiquitin Conjugation Assay: The E3 ligase activity of recombinant E6AP ligase was quantitated in kinetic assays under initial velocity conditions (Ronchi et al., (2013) J. Biol. Chem. 288, 10349-10360, Ronchi & Haas (2012) Methods Mol. Biol. 832: 197-218). Rates of E6AP-catalyzed ^125I-polyubiquitin chain formation were measured at 37° C. in incubations of 25-μl final volume containing 50 mM Tris-HCl (pH 7.5), 1 mM ATP, 10 mM MgCl2, 1 mM DTT, 10 mM creatine phosphate, 1 IU of creatine phosphokinase, 5 μM ^125I-ubiquitin (approximately 1.5×10^4 cpm/pmol), 50 nM human Uba1, and the indicated concentrations of UbcH7 and E6AP ligase (Siepmann et al., (2003) J. Biol. Chem. 278: 9448-9457; Baboshina et al., (2001) J. Biol. Chem. 276: 39428-39437). […]
Polyubiquitin chain formation was measured by excising lanes between the top of the resolving gel and the top of the stacker gel, representing anchored and free ^125I-polyubiquitin chains, respectively, and quantitating associated ^125I-ubiquitin by γ-counting. Absolute rates of ^125I-polyubiquitin chain formation were calculated from the associated radioactivity and the corrected specific radioactivity for ^125I-ubiquitin. Datum points represent single assay determinations, and complete data sets were evaluated by non-linear regression analysis using GraFit version 5.0 (Erithicus). […]

B1: E6 protein: recombinant human papilloma virus 16 E6 protein, 158 amino acids (protein)
chain: MHQKRTAMFQDPQERPRKLPQLCTELQTTIHDIILECVYCKQQLLRREVYDFAFRDLCIVYRDGNPYAVCDKCLKFYSKISEYRHYCYSLYGTTLEQQYNKPLCDLLIRCINCQKPLCPEEKQRHLDKKQRFHNIRGRWTGRCMSCCRSSRTRRETQL
effect on E6APF727D: significantly enhanced; also recorded: rescues the kcat defect
